Laboratory results: patent publication US9657092B2, “S100A4 antibodies and therapeutic uses thereof” (LYKERA BIOMED SA, priority 2010, dated 2017)
“And” between values parts separate entries of the source, which are not always exact repeats. Identical values can stand only once.

How the values were obtained:
[1] = system: HUVECs migration induced by VEGF plus S100A4; experiment: HUVECs Transwell migration assay; format: cell-based, human
Procedure: Twenty-four-well cell culture plates with light-opaque PET membrane filter inserts with 8 μm-pores (Transwell HTS FluoroBlok™ Multiwell Insert Systems from Becton Dickinson) were used to test the migratory activity. The upper and lower surfaces of the Transwell membranes were coated for 2 hours at 37° C. with 15 μg/mL of Type I Collagen (Upstate). Endothelial cells (5×10^4 HUVEC's) suspended in 100 μl of EBM in the absence of serum or other supplements were seeded, after the collagen coating, onto the upper side of each Transwell chamber and incubated for 4 hours at 37° C. Then, S100A4 (1 μM), alone or in combination with VEGF (3 ng/mL) in EBM were added to the lower compartment of the 24-well plates to test their chemotactic capacity. […] Other monoclonal antibody anti-S100A4 called 5H4 (Leitat Biomed Division) was used to compare the activity. After 24 hours at 37° C., cells that had migrated to the lower side of the transwell were incubated with 5 μM Calcein-AM (Calbiochem) for 25-30 minutes at 37° C. Migrated cells were counted under a light microscope at a magnification of ×10. Comparisons between groups were made using the two-tailed nonparametric Mann Whitney U test. Differences for which P value was less than 0.05 were considered statistically significant.

[2] = system: MiaPACA-2 tumors microvasculature; experiment: Tumor microvasculature quantification by CD31 immunostaining; format: in vivo, nude mice
Procedure: Tumors from MiaPACA-2 xenograft tumor model were OCT (Tissue-Tek®, Sakura) embedded and frozen. One cryosection (5 μm) corresponding to the central part of each tumor was analyzed. Sections were fixed in acetone/chloroform (1:1) at −20° C. for 5 min, were dried over night at room temperature, washed with PBS and treated for 10 min at 4° C. in a dark chamber with H2O2 (0.03%) in PBS. Then, sections were washed with PBS and blocked for 20 min at 4° C. using PBS-BSA (2%) plus rabbit serum (5%) (Vector) and with Avidin-biotin blocking solution (Dako) for 10 min each one at 4° C. Samples were incubated for 1 hour at room temperature with primary antibody; a monoclonal rat anti-mouse antibody directed against CD31 (dil 1:200, BD PharMingen) diluted in blocking buffer. After incubation sections were incubated with a polyclonal biotinylated anti-rat antibody as secondary antibody (dil 1:500, Vector) for 30 min at room temperature and were incubated with the ABC reagent (Pierce) for 30 min at room temperature. Finally, sections were incubated with NovaRed (Vector) for 20 min at 4° C., stained with hematoxilin Harris (Sigma) for 10 seconds and mounted using DPX non aqueous mounting medium (Sigma).
Angiogenesis quantification was measured using two criteria:
8 and 39 pictures per slice, depending on the size of tumours, were taken and analyzed using the NIH ImageJ imaging software.
Comparisons between groups were made using the two-tailed nonparametric Mann Whitney U test. Differences for which P value was less than 0.05 were considered statistically significant.
The inventors investigated whether the 5C3 would actually affect tumor angiogenesis in vivo. The evaluation of tumor angiogenesis was made based on the CD31 immunostaining and two analytics approximations: MicroVessel Density (M.V.D.) and the fractional area of vessels (A.A.).

Mouse S100A4 = molecular target: T1, Mouse S100A4 (Mus musculus, UniProt P07091); experiment: ELISA specificity (reaction pattern of mAb); format: binding; set-up: key to Reaction Pattern of mAb in ELISA, Mouse S100A4: ++++ positive reaction; − no reaction
T1 construct: made in house
T1 sequence (P07091 whole entry): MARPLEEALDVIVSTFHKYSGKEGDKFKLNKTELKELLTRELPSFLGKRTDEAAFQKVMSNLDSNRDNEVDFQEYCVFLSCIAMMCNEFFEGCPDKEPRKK

Human S100A2 = molecular target: T2, Human S100A2 (Homo sapiens, UniProt P29034); experiment: ELISA specificity (reaction pattern of mAb); format: binding; set-up: key: ++++ positive reaction; − no reaction
T2 construct: purchased Abnova
T2 sequence (P29034 whole entry): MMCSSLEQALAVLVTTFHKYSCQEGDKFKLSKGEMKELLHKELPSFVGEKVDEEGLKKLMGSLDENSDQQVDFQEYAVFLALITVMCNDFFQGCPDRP

[3] = system: circulant S100A4 protein in plasma; experiment: Plasma quantification of S100A4 by sandwich ELISA in xenograft tumor models; format: in vivo, athymic mice; settings: MiaPACA-2 and HCT116 xenograft tumor model, end of experiment
Procedure: Plasma levels of S100A4 were quantified by sandwich ELISA method. […] After removing the coating, plates were washed twice with PBS and incubated 1 h at 37° C. in blocking buffer (PBS containing 1% of skimmed milk).
Plasma samples diluted 1:4 in dilution buffer (PBS-4% BSA) were applied to the wells (100 μl/well) and were incubated 2 h at 37° C. Plates were washed eight times with washing buffer (PBS-0.1% of Tween-20) and Rabbit polyclonal anti-S100A4 secondary antibody (Dako) at the appropriate dilution was applied to the wells (100 μl/well) and were incubated for 1 h at 37° C.
Plates were washed eight times with washing buffer and Goat anti-Rabbit-IgG-peroxidase conjugated (Sigma) at the appropriate dilution was added to each well (100 μl/well) and were incubated 1 h at 37° C. […] Absorbance was ridden at 450 nm.
Standard curve for basal plasma samples (animals without tumor), was obtained by serial dilutions of murine recombinant S100A4 in dilution buffer. Standard curve for final plasma samples (animals with tumor at the end of the experiment) was obtained by serial dilutions of human recombinant S100A4 in dilution buffer.

Human S100A4 = Human S100A4 (Homo sapiens, UniProt P26447); experiment: ELISA specificity (reaction pattern of mAb); format: binding; set-up: the final full-length recombinant S100A4 protein has an additional Gly-Ser-His at the N-terminus; His tag (pET28a) (N); made in house; host or cells: E. coli Tuner (DE3); key to Reaction Pattern of mAb in ELISA, Human S100A4: ++++ positive reaction; − no reaction
Chain of Human S100A4 (P26447 with tags, fused parts or gaps): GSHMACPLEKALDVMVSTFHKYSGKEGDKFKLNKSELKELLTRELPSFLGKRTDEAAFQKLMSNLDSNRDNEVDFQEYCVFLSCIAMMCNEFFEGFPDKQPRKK

[4] = VEGF 3 ng/mL plus S100A4 1 μM, 24 h
[5] = group G2, MiaPACA-2 tumors, day 30
[6] = individual animal of G2 (5C3 treatment group), MiaPACA-2 tumor, day 30

B1: 5C3: mouse monoclonal anti-S100A4 antibody, IgG1, from hybridoma ECACC 10022401; VL SEQ ID NO: 1, VH SEQ ID NO: 2 (antibody, V domains shown)
VH: EAQLQQSGAELVKPGASVKLSCTASGFNIQETYMHWVKQRPEQGLEWIGRIDPANGNTKDDPKFQGKASITVDTSSNTAYLQLSSLTSEDTAVYYCASSYAMDYWGQGTSVTVSS
VL: DVLMTQTPLSLPVSLGDQASISCRSSQSIVHSNGNTYLEWYLQKTGQSPELLIYKVSNRLSGVPDRFSGSGSGTDFTLKISRVEAEDLGVYYCFQGSHVPFTFGSGTKLEIK
modifications: VH region of the 5C3 monoclonal antibody; VL region of the 5C3 monoclonal antibody
concentration that abolished the synergistic effect of VEGF plus S100A4 on HUVECs migration [1, 4]: 250 nM | neutralizing activity on HUVECs migration induced by S100A4 [1, 4]: in vitro neutralizing activity | migration induced by VEGF alone ([1]; VEGF alone): did not affect | reduction in microvessel density compared with control group (vehicle) ([2]; MiaPACA-2 tumors): approximately 40% | reduction of the section area occupied by vessels compared with control group (vehicle) ([2]; MiaPACA-2 tumors): ~30% | AA (%) Mean [2, 5]: 0.69% | AA (%) Median [2, 5]: 0.59% | MVD (v.p./mm^2) Mean [2, 5]: 27.42 v.p./mm^2 | MVD (v.p./mm^2) Median [2, 5]: 26.45 v.p./mm^2 | % A.A. (Fractional area of vessels) [2, 6]: 1.14% and 1.26% and 0.53% (2×) and 0.41% and 0.66% and 0.72% and 0.32% | M.V.D. (MicroVascular Density) [2, 6]: 31.55 v.p./mm^2 and 44.37 v.p./mm^2 and 20.23 v.p./mm^2 and 16.81 v.p./mm^2 and 29.84 v.p./mm^2 and 36.23 v.p./mm^2 and 17.31 v.p./mm^2 and 23.05 v.p./mm^2 | No of vessels [2, 6]: 514 and 460 and 240 and 203 and 440 and 426 and 158 and 174 | Reaction Pattern of mAb in ELISA, Mouse S100A4 (Mouse S100A4): ++++ | reaction with murine S100A4 by ELISA (Mouse S100A4; purified protein): reacted | Reaction Pattern of mAb in ELISA, Human S100A2 (Human S100A2): − | S100A4 protein levels in plasma of treated animals (unbound to 5C3) [3]: blocks the totality of circulant S100A4 protein in plasma | Reaction Pattern of mAb in ELISA, Human S100A4 (Human S100A4): ++++ | reaction with human S100A4 by ELISA (Human S100A4; purified protein): reacted
